Experimental data taken from US7976843B2, “Method for screening peptides for use in immunotherapy” (Institut National de la Santa et de la Recherche Medicale …, priority 2000, dated 2011).
Where two headings read alike, the source gives them in different places.

Experiments:
HLA A2.1 molecule [1] = target: T1, HLA A2.1 molecule (Homo sapiens, UniProt P04439, D140Y/D185E/D98H/E176V/E277Q/G131W/G231S/I119V/I121R/I166T/I218V/L300P/L318F/N151K/N90K/P208A/P217A/Q86G/Q94H/R138H/R169H/T345S); type: binding
HLA A2.1 molecule [2] = target: T1, HLA A2.1 molecule; experiment: Stability of the peptide/HLA A2.1 complex (DC50) on T2 cells, flow cytometry; type: binding
Procedure: For each incubation time, the cells are then labeled, as indicated above, with the BB7.2 antibody, and analyzed by flow cytometry in order to evaluate the amount of peptide/HLA A2.1 complex present at their surface. […] The DC50 (dissociation complex: DC) is defined as being the time required for the loss of 50% of the HLA A2.1/peptide complexes stabilized at t=0.

[3] = tested on: RMAS-HHD targets loaded with peptide; experiment: Immunogenicity: CTL generation in HHD transgenic mice, 51Cr lysis of peptide-loaded targets; type: in vivo; conditions: for immunogenicity (in words): HHD mice (also humans); for killing of RMAS-HHD cells loaded with natural peptide or its P1Y variant: CTLs induced in HHD mice sensitized with the natural peptide, FIG. 1; for percentage of HHD mice in which a CTL response is induced: mice sensitized with the peptide
[4] = HHD mice, 100 μg peptide s.c., responder: specific cytotoxicity >15% above unloaded targets
[5] = native peptides, relative affinity vs reference peptide HIVpol 589, lower RA = stronger binding
[6] = […], arrow in neighbouring cell gives direction
[7] = native peptides, time for loss of 50% of HLA A2.1/peptide complexes
[8] = native TERT peptides, reference peptide HIVpol 589
[9] = difference between DC50 of P1Y variant and natural peptide, arrow in neighbouring cell gives direction

AFHNVAREL [A9L]
RA, P1Y peptides (HLA A2.1 molecule [1]): 7
RA, Native peptides (HLA A2.1 molecule [1]; HIV 1 peptides, […]): >100
DC, P1Y peptides (HLA A2.1 molecule [2]): >6 h

ALCRWGLLL [HER-2/neu 5]
Responders/total mice [3, 4]: 5/6

ALIHHNTHL [HER-2/neu 466]
immunogenicity (in words) [3]: nonimmunogenic
Responders/total mice ([3]; mouse, in vivo, sc): 0/6

ALVEICTEM [A9M]
RA, Native peptides (HLA A2.1 molecule [1]): 5
RA, P1Y peptides (HLA A2.1 molecule [1]): 1.75
DC, Native peptides (HLA A2.1 molecule [2]): 2 h
DC, P1Y peptides (HLA A2.1 molecule [2]): >6 h

AMLGTHTMEV [gp100 177, reference compound]
RA (HLA A2.1 molecule [1]; [5]): 0.5
DC50 Y1-DC50 WT (HLA A2.1 molecule [2]; [6]): 2 h
DC50 (HLA A2.1 molecule [2]; [7]): >6 h
killing of RMAS-HHD cells loaded with natural peptide or its P1Y variant [3]: same efficacy
Responders/total mice ([3]; mouse, in vivo, sc): 3/5

CLTSTVQLV [HER-2/neu 789]
Responders/total mice [3, 4]: 4/6

ELVSEFSRM [HER-2/neu 971, reference compound]
RA (HLA A2.1 molecule [1]; [5]): >70.0
DC50 Y1-DC50 WT (HLA A2.1 molecule [2]; [6]): 2 h
DC50 (HLA A2.1 molecule [2]; [7]): 2 h
Responders/total mice ([3]; mouse, in vivo, sc): 0/6

FLFWLMDTYV [mp 534]
RA (HLA A2.1 molecule [1]; [8]): 0.2
DC50 (HLA A2.1 molecule [2]; native TERT peptides): >6 h

FLLSLGIHL [HBV pol 575, reference compound]
killing of RMAS-HHD cells loaded with natural peptide or its P1Y variant [3]: same efficacy
Responders/total mice [3, 4]: 6/8

FLPWHRLFLL [Tyrosinase 207]
RA (HLA A2.1 molecule [1]; [5]): >50.0
DC50 Y1-DC50 WT (HLA A2.1 molecule [2]; [9]): >4 h
DC50 (HLA A2.1 molecule [2]; [7]): 2 h
Responders/total mice [3, 4]: 0/6

FLSTLVHGV [mp 676]
RA (HLA A2.1 molecule [1]; [8]): 1.2
DC50 (HLA A2.1 molecule [2]; native TERT peptides): >6 h

GILGPVFTL [Flu M58, reference compound]
RA (HLA A2.1 molecule [1]; [5]): 0.2
DC50 (HLA A2.1 molecule [2]; [7]): >8 h
Responders/total mice [3, 4]: 4/6

HER-2/neu 369Y1: P1Y variant of HER-2/neu 369 (YIFGSLAFL)
percentage of HHD mice in which a CTL response is induced [3]: 100%

ILAKFLHWL [mhp 540]
RA (HLA A2.1 molecule [1]; [8]): 0.3
DC50 (HLA A2.1 molecule [2]; native TERT peptides): >6 h

ILATFLAWL [mp 530]
RA (HLA A2.1 molecule [1]; [8]): 0.8
DC50 (HLA A2.1 molecule [2]; native TERT peptides): >6 h

ILKEPVHGV [I9V, reference compound]
RA, Native peptides (HLA A2.1 molecule [1]): 1
DC, Native peptides (HLA A2.1 molecule [2]): 5 h

ILLVVVLGV [HER-2/neu 661]
RA (HLA A2.1 molecule [1]; [5]): >60.0
DC50 Y1-DC50 WT (HLA A2.1 molecule [2]; [9]): 2 h
DC50 (HLA A2.1 molecule [2]; [7]): 2 to 4 h
immunogenicity (in words) [3]: non-immunogenic
Responders/total mice ([3]; mouse, in vivo, sc): 0/6

ILTVILGVL [Mart-1 32, reference compound]
RA (HLA A2.1 molecule [1]; [5]): 21.1
immunogenicity (in words) [3]: non-immunogenic
Responders/total mice [3, 4]: 0/10

KLTGDENFTI [Tyrosinase 224]
RA (HLA A2.1 molecule [1]; [5]): >50.0
DC50 Y1-DC50 WT (HLA A2.1 molecule [2]; [9]): >2 h
DC50 (HLA A2.1 molecule [2]; [7]): <2 h
Responders/total mice [3, 4]: 0/6

KLTPLCVSL [K9L]
RA, P1Y peptides (HLA A2.1 molecule [1]): 0.7
RA, Native peptides (HLA A2.1 molecule [1]; HIV 1 peptides, […]): 1.35
DC, P1Y peptides (HLA A2.1 molecule [2]): >6 h
DC, Native peptides (HLA A2.1 molecule [2]; HIV 1 peptides): >6 h

KTWGQYWQV [gp100 154]
killing of RMAS-HHD cells loaded with natural peptide or its P1Y variant [3]: same efficacy
Responders/total mice [3, 4]: 7/9

LLDDEAGPL [HBV pol 28]
DC50 Y1-DC50 WT (HLA A2.1 molecule [2]; [6]): >2 h
DC50 (HLA A2.1 molecule [2]; [7]): <2 h
Responders/total mice [3, 4]: 0/6

LLDGTATLRL [gp 100 457, reference compound]
RA (HLA A2.1 molecule [1]; [5]): 1.6
DC50 Y1-DC50 WT (HLA A2.1 molecule [2]; [6]): >2 h
DC50 (HLA A2.1 molecule [2]; [7]): 2 to 4 h
killing of RMAS-HHD cells loaded with natural peptide or its P1Y variant [3]: same efficacy
Responders/total mice [3, 4]: 4/6

LLGCAANWIL [HBV pol 765]
RA (HLA A2.1 molecule [1]; [5]): 2.0
DC50 Y1-DC50 WT (HLA A2.1 molecule [2]; [6]): 4 h
DC50 (HLA A2.1 molecule [2]; [7]): 4 h

LLWKGEGAV [L9V]
RA, Native peptides (HLA A2.1 molecule [1]): 3.1
RA, P1Y peptides (HLA A2.1 molecule [1]): 1.3
DC, Native peptides (HLA A2.1 molecule [2]): >6 h
DC, P1Y peptides (HLA A2.1 molecule [2]): >6 h

MLGTHTMEV [gp100 178]
RA (HLA A2.1 molecule [1]; [5]): 0.3
Responders/total mice ([3]; mouse, in vivo, sc): 4/6

MLLAVLYCL [Tyrosinase 1, reference compound]
RA (HLA A2.1 molecule [1]; [5]): >60.0
Responders/total mice [3, 4]: 4/23
percentage of HHD mice in which a CTL response is induced [3]: 17%

NLQSLTNLL [HBV pol 985]
Responders/total mice [3, 4]: 0/6

PLEEELPRL [HBV pol 594]
RA (HLA A2.1 molecule [1]; [5]): 4.2
DC50 Y1-DC50 WT (HLA A2.1 molecule [2]; [6]): >6 h
DC50 (HLA A2.1 molecule [2]; [7]): <2 h
Responders/total mice [3, 4]: 0/6

PLQPEQLQV [HER-2/neu 391]
RA (HLA A2.1 molecule [1]; [5]): >70.0
DC50 Y1-DC50 WT (HLA A2.1 molecule [2]; [6]): >6 h
DC50 (HLA A2.1 molecule [2]; [7]): 2 h
immunogenicity (in words) [3]: nonimmunogenic
Responders/total mice ([3]; mouse, in vivo, sc): 0/6

PLTFGWCFKL [P10L]
RA, P1Y peptides (HLA A2.1 molecule [1]): 5
RA, Native peptides (HLA A2.1 molecule [1]; HIV 1 peptides, […]): >100

PLTSIISAV [HER-2/neu 650]
RA (HLA A2.1 molecule [1]): 1.4
RA WT/RA Y1 (HLA A2.1 molecule [1]): 6.0
DC50 (HLA A2.1 molecule [2]): <2 h
DC50 Y1-DC50 WT (HLA A2.1 molecule [2]): >4 h
immunogenicity (in words) [3]: nonimmunogenic
Responders/total mice ([3]; mouse, in vivo, sc): 0/6

PLVKLWYQL [P9L]
RA, P1Y peptides (HLA A2.1 molecule [1]): 4.6
RA, Native peptides (HLA A2.1 molecule [1]; HIV 1 peptides, […]): >100
DC, P1Y peptides (HLA A2.1 molecule [2]): <2 h

RLRDLLLIV [R9V]
RA, P1Y peptides (HLA A2.1 molecule [1]): 5
RA, Native peptides (HLA A2.1 molecule [1]; HIV 1 peptides, […]): >100

SLADTNSLAV [gp100 570, reference compound]
RA (HLA A2.1 molecule [1]; [5]): 1.0
DC50 Y1-DC50 WT (HLA A2.1 molecule [2]; [6]): >2 h
DC50 (HLA A2.1 molecule [2]; [7]): 4 to 6 h
killing of RMAS-HHD cells loaded with natural peptide or its P1Y variant [3]: same efficacy
Responders/total mice ([3]; mouse, in vivo, sc): 6/9

TDQVPFSV [gp100 209, reference compound]
DC50 Y1-DC50 WT (HLA A2.1 molecule [2]; [6]): 2 h
DC50 (HLA A2.1 molecule [2]; [7]): 4 h
Responders/total mice ([3]; mouse, in vivo, sc): 4/6

TLEEITGYL [HER-2/neu 402]
RA (HLA A2.1 molecule [1]; [5]): 19.0
DC50 Y1-DC50 WT (HLA A2.1 molecule [2]; [6]): >2 h
DC50 (HLA A2.1 molecule [2]; [7]): <2 h
immunogenicity (in words) [3]: nonimmunogenic
Responders/total mice ([3]; mouse, in vivo, sc): 0/6

VIYQYMDDL [V9L]
RA, P1Y peptides (HLA A2.1 molecule [1]): 8.6
RA, Native peptides (HLA A2.1 molecule [1]; HIV 1 peptides, […]): >100
DC, P1Y peptides (HLA A2.1 molecule [2]): <2 h

VLDVGDAYFSV [V11V]
RA, P1Y peptides (HLA A2.1 molecule [1]): 2.5
RA, Native peptides (HLA A2.1 molecule [1]; HIV 1 peptides, […]): 4.5
DC, P1Y peptides (HLA A2.1 molecule [2]): 3.5 h
DC, Native peptides (HLA A2.1 molecule [2]; HIV 1 peptides): 2 h

VLVKSPNHV [HER-2/neu 851, reference compound]
RA (HLA A2.1 molecule [1]; [5]): 24.0
DC50 Y1-DC50 WT (HLA A2.1 molecule [2]; [6]): 2 h
DC50 (HLA A2.1 molecule [2]; [7]): 4 h
Responders/total mice [3, 4]: 1/12
percentage of HHD mice in which a CTL response is induced [3]: 8%

VLYRYGSFSV [gp100 476, reference compound]
RA (HLA A2.1 molecule [1]; [5]): 10.0
DC50 Y1-DC50 WT (HLA A2.1 molecule [2]; [6]): 2 h
DC50 (HLA A2.1 molecule [2]; [7]): 6 h
killing of RMAS-HHD cells loaded with natural peptide or its P1Y variant [3]: same efficacy
Responders/total mice [3, 4]: 8/10

YLIHHNTHL [HER-2/neu 466Y1]
RA (HLA A2.1 molecule [1]): 1.4
DC50 (HLA A2.1 molecule [2]): 6 h

YLVPQQGFFC [HER-2/neu 1023, reference compound]
RA (bound stated in text) (HLA A2.1 molecule [1]): > 5
RA (HLA A2.1 molecule [1]; [5]): 19.6
DC50 (HLA A2.1 molecule [2]; [7]): 4 h
Responders/total mice ([3]; mouse, in vivo, sc): 5/10

gp100 177Y1: P1Y variant of gp100 177 (YMLGTHTMEV)
percentage of HHD mice in which a CTL response is induced [3]: 75%

gp100 457Y1: P1Y variant of gp100 457 (YLDGTATLRL)
percentage of HHD mice in which a CTL response is induced [3]: 75%

gp100 476Y1: P1Y variant of gp100 476 (YLYRYGSFSV)
percentage of HHD mice in which a CTL response is induced [3]: 100%

gp100 570Y1: P1Y variant of gp100 570 (YLADTNSLAV)
percentage of HHD mice in which a CTL response is induced [3]: 100%
